B1: N41mab-vcMMAE (antibody, V domains shown)
VH: QVQLKQSGPGLVQPSQSLSITCTVSGFSLTNYGVHWVRQSPGKGLEWLGVIWSGGSTDYNAAFISRLSISKDTSKSQVFFKMNSLQADDTAIYYCARELIHAMDNWGQGTSVTVSS
VL: DIQMTQSPASLSVSVGETVTITCRASENIYSNLAWYQQKQGNSPQLLVFAATNLADGVPSRFSGSGSGTQYSLKINSLQSEDFGTYYCQHFWGTPTFGGGTKLEIK
modifications: monomethyl auristatin-E (MMAE) conjugated through the MC-Val-Cit-PAB linker; drug to antibody ratio 4.73; sites not stated
B2: N41mab antibody (antibody, V domains shown)
VH: B1 VH
VL: B1 VL
notes: Mouse monoclonal antibody from a hybridoma (mice immunized with nectin4 V-Fc); also called mab1; Mab1

How the values were obtained:
[1] = molecular target: T1, N-terminal Flag-tagged nectin4 expressed in MDA-MB-231 cells (human, UniProt Q96NY8 32-510); assay: cell-based or functional assay
T1 sequence (looked up): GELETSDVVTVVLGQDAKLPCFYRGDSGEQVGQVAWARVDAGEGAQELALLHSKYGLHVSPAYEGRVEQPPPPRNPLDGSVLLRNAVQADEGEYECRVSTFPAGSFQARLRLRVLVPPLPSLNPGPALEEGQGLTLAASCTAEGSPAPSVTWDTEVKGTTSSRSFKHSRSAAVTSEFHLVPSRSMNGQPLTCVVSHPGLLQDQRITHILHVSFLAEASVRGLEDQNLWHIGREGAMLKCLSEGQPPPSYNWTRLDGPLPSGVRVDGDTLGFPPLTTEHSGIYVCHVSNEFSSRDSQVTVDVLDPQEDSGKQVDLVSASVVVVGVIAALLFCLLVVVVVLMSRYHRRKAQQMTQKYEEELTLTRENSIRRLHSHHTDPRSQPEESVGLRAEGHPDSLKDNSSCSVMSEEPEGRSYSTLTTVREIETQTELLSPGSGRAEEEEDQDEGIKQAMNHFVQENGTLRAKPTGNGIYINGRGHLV

[2] = molecular target: T2, endogenous nectin-4 on SUM190 cells (human, UniProt Q96NY8 32-510); assay: cell-based or functional assay
T2 sequence (looked up): T1 sequence (looked up)

[3] = molecular target: T3, nectin1V-Fc (comprising only the IgV domain) (UniProt Q15223 31-143, limits assumed); assay: ELISA, plate coated with 5 ug/ml nectin1V-Fc
T3 construct: domain: IgV domain; not shown: Fc part
T3 sequence (looked up): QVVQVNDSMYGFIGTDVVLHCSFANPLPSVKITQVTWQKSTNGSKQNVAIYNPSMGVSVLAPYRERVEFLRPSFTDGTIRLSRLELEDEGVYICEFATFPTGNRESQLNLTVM
Protocol: A: Detection by ELISA. Ninety-six-well trays were coated with 5 ug/ml of nectin4V-Fc or nectin1V-Fc (comprising only the IgV domain) overnight at +4° C. as indicated. N41mab recognizes the nectin4V-Fc (bar 3) not the nectin1V-Fc (bar 1).
A sandwich enzyme-linked immunosorbent assay was used to control specificity of N41mab antibody and to perform competition assays between mabs. Ninety-six-well trays were coated with 5 μg/ml of nectin4V-Fc or nectin1V-Fc (comprising only the IgV domain) overnight at +4° C. After washes and saturation with PBS 1% BSA cells were incubated overnight with 0.625 μg/ml of N41mab. Peroxydase conjugated goat anti mouse antibody was incubated 2 h at 25° C. (Pierce). In the case of competition, binding of peroxidase conjugated N41mab was measured in the presence of vairable concentration of “cold” mab. One hundred ul of peroxidase substrate was added (One Step ABST, Pierce), and OD was read at 405 nm.
A sandwich enzyme-linked immunosorbent assay was used to control the specificity of the N41mab antibody. Ninety-six-well trays were coated with 5 μg/ml of nectin4V-Fc or nectin1V-Fc (comprising only the IgV domain) overnight at +4° C. After washes and saturation with PBS 1% BSA cells were incubated overnight with 0.625 μg/ml of mab1/N41mab. […] One hundred μ1 of peroxidase substrate was added (One Step ABST, Pierce), and OD was read at 405 nm.

Row | Binder | IC50 (cell growth, alamarBlue) [1] [ng/mL] | IC50 (cell growth, alamarBlue) [2] [ng/mL] | binding result [3]
1 | B1 | 2 | 4 | –
2 | B2 | – | – | no binding (tested: 0.625 µg/ml)

From patent US20180243434A1 (INSERM INSTITUT NATIONAL DE LA SANT ET DE LA RECHERCHE M …, published 2018)
